Reference: patent US20180236053A1 (CELLECTIS, published 2018)

Assays:
[1] = biological target: T1, CD38-Fc protein (produced by LakePharma) (UniProt P28907 43-300, limits assumed); assay: flow cytometry, CD38-Fc fusion protein staining of purified CD38-deficient T cells transfected with CAR mRNA (FIG. 15)
T1 construct: Staining reagent for CAR detection by flow cytometry; also called CD38-Fc fusion protein; not shown: Fc part
Experimental: T cells were purified from buffy coat samples and activated using anti-CD3/CD28 coated beads and IL-2. CD38-1 TALEN mRNA was transfected in T cells at day 4 after activation, 6 days later CD38 negative cells were purified by using magnetic separation (Miltenyi). The day after, CAR mRNAs were transfected. The CAR expression and degranulation capacity of CART cells were assessed 24 hours after the transfection. CAR expression and cytotoxic capacity of CART cells were assessed 48 hours after the transfection.
All CARs were detected 24 h after transfection except the 25A10-V3 However, the latter expressed anti-CD38 CAR above the background. The 13F11-V2, 25A10-V1, 25A10-V2 and 28F5-V2 were highly expressed (more than 80%).

[2] = biological target: T1, CD38-Fc protein (produced by LakePharma); assay: flow cytometry, CD38 Fc staining of CD38/TRAC double KO T cells transduced with rLV (FIG. 27C)
Experimental: The parameters are the following: T cells were activated by using Dynabeads CD3-CD28, the culture were made by using medium Xvivo+5% human serum heat inactivated+IL-2 20 ng/ml, a double KO (DKO) CD38-TRAC was performed by using a ratio of 2 μg TALEN mRNA per million of cells (5 million cells/cuvette); the transduction was performed by using rLV from Vectalys(France) at a MOI of 5.
The screening of the 4 CARs 25A10-v1, -v2, 28F5-v1 and -v2 after rLV transduction in DKO T cells has shown that all the CARs were expressed at the T cell surface with a high efficiency (>40%) and 3 of them above 80% (FIG. 27C). RQR8 expression was correlated with CAR expression (FIG. 27A). Most of the T cells were CD38 negative when T cells have been transduced by CD38 CARs (FIG. 27A). It is shown also that 60-85% of T cells endowed with the above 4 CARs were DKO TRAC/CD38 (FIG. 27B).

[3] = biological target: CD38 antigen on the surface of cells (U266 CD38+, MOLP8, Daudi, T-ALL cell lines, activated T cells) (human, UniProt P28907 1-300); assay: cell-based or functional assay

B1: 28F5-V2 CAR (other)
chain: QIQLVQSGPELKKPGETVKISCKASGYTFTKYGMNWVKQTPGKGLKWMGWINTNSGEPTYAEEFKGRFAFSLETSASTAYLQINNLKNEDTATYFCARGAYYRYDGEVSYYAMDYWGQGTSVTVSSGGGGSGGGGSGGGGSQIILTQSPAIMSASLGERVTMTCTATSSLSSSYLHWYQQKPGSSPKLWIYSTSHLASGVPARFSGGGSGTSYSLTISSMEAEDAATYYCHQYHLSPYTFGGGTKLEIKTTTPAPRPPTPAPTIASQPLSLRPEACRPAAGGAVHTRGLDFACDIYIWAPLAGTCGVLLLSLVITLYCKRGRKKLLYIFKQPFMRPVQTTQEEDGCSCRFPEEEEGGCELRVKFSRSADAPAYQQGQNQLYNELNLGRREEYDVLDKRRGRDPEMGGKPRRKNPQEGLYNELQKDKMAEAYSEIGMKGERRRGKGHDGLYQGLSTATKDTYDALHMQALPPR
notes: Chimeric antigen receptor on T cells; signal peptide left out here
% of T cells stained by CD38-Fc (CAR expression) [1]: > 80%
% of T cells stained by CD38-Fc (CAR expression) [2]: > 40%
ratio of degranulation against U266 CD38+ and U266 CD38- [3]: > 2 ratio
